The values below come from paper PMC7915030, “A Novel Artificially Humanized Anti-Cripto-1 Antibody Suppressing Cancer Cell Growth” (International Journal of Molecular Sciences, 2021).

The labels stand for the following.
B1: anti-CR-1 antibody Clone 35 (antibody, V domains shown)
VH: QVQLQQSGPGLVKPSQTLSLTCAISGNSVSSNSAAWNWIRRSPSRGLEWLGRTYYRSKWYNDYAVSVKSRITIKPDTSKNQFSLQLNSVTPEDTAMYYCARGFCSGGRCYSFDYWGPGTLVTVSS
VL: QSVLTQPASVSGSPGQSITISCTGTDSDVGAYGSASWYRHSPGKAPQLIIYDVTNRPSGVSNRFYGSKSGNTASLTISGLQAEDEADYYCQAWDSGIHVVFGGGTQLTVL
notes: VH of phage clone 35 from the human scFv phage display library; human IgG heavy-chain constant region (CH1, CH2 and CH3) of the vector pHIgH5zeo; VL of phage clone 35 from the human scFv phage display library; human IgG light-chain constant region (CL) of the vector pHIgL5hyg; Whole human IgG format (VH-CH1-CH2-CH3 and VL-CL); also called anti-CR-1 Ab Clone 35; anti-CR-1 Clone 35 antibody
B2: anti-CR-1 antibody Clone 242 (antibody, V domains shown)
VH: QVQLVESGGGLVQPGGSLRLSCAASGFTFSNKPMSWVRQAPGKGLEWLSAISGSGVYAYFADSAKGRFTISRDNSKNTPYLQMNSLRAEDTAMYYCARQHITMLPGWFDPWGQGTLVTVSS
VL: QSVLTQPPSASGSPGQSVTISCTGSSSDVGGYNYVSWYQQHPGKAPKLMIYEVSKRPSGVPDRFSGSKSGNTASLTVSGLQAEDEAEYHCATWDNSLSSWVFGRGTQLTVL
notes: VH of phage clone 242; human IgG heavy chain constant region CH1-CH2-CH3 from the vector pHIgH5zeo; VL of phage clone 242; human IgG light chain constant region CL from the vector pHIgL5hyg; whole human IgG built from the VH and VL of the scFv phage clone; also called anti-CR-1 Ab; source: ExpiCHO-S, transfected, conditioned medium
B3: anti-CR-1 antibody Clone 90 (antibody, V domains shown)
VH: QVQLQQSGPGLVKPSQTLSLTCAISGDSVSSNSAAWNWIRQSPSRGLEWLGRTYYRSKWYNDYAVSVKSRITIKPDTSKNQFSLQLYSVTPEDTAMYYCARDSYGMDVWGQGTTATVSS
VL: NFMLTQPPSASGTPGQRVSISCSGSSSNIGSSSVYWCRQLPGTAPKLLIYDVTNRPSGVPDRFSASKSGTSASLAISGLRSEDESDYYCVLYMGSGISVFGGGTKVTVL
notes: VH of phage clone 90; human IgG heavy chain constant region CH1-CH2-CH3 from the vector pHIgH5zeo; VL of phage clone 90; human IgG light chain constant region CL from the vector pHIgL5hyg; whole human IgG built from the VH and VL of the scFv phage clone; also called anti-CR-1 Ab; source: ExpiCHO-S, transfected, conditioned medium
B4: anti-CR-1 antibody Clone 292 (antibody, V domains shown)
VH: QVQLQQSGPGLVKPSQTLPLTCAIYGDSVSSNSAAWNWIRQSPSRGLEWLGRTYYRSKWYNDYAVSVQSRITINPDTSKNQFSLQLNSVTPEDTAMYYCAKGKLSLEVITTRGWDWGQGTLVTVSS
VL: QSVLTQPRSVSGSPGQSVTISCTGTRADVGTYHYVSWYQRHPGKAPKLIIYDVSKRPSGVPDRFSGSKSGNTASLTVSGLQAEDEADYYCQSADSSGTYVIFGGGTQLTVL
notes: VH of phage clone 292; human IgG heavy chain constant region CH1-CH2-CH3 from the vector pHIgH5zeo; VL of phage clone 292; human IgG light chain constant region CL from the vector pHIgL5hyg; whole human IgG built from the VH and VL of the scFv phage clone; also called anti-CR-1 Ab; source: ExpiCHO-S, transfected, conditioned medium
B5: anti-CR-1 antibody Clone 224 (antibody, V domains shown)
VH: QVQLQQSGPGLVKPSQTLSLTCAISGDSVSSNSATWNWIRQSPSRGLEWLGRTYYKSKWYNEYAVSVKSRITINPDTSKNQFSLQLDSVTPEDTAMYYCATDRYYARDYWGRGTLVTVSS
VL: QSVLIQPRSVSGSPGQSVTISCTGTSGDVGYYDHVSWYQQHPGKAPKIMIYDVTQRPSGVPDRFSGSRSGNTASLTISGLQADDESDYYCVLYLGNGIWVFGGGTQLTVL
notes: VH of phage clone 224; human IgG heavy chain constant region CH1-CH2-CH3 from the vector pHIgH5zeo; VL of phage clone 224; human IgG light chain constant region CL from the vector pHIgL5hyg; whole human IgG built from the VH and VL of the scFv phage clone; also called anti-CR-1 Ab; source: ExpiCHO-S, transfected, conditioned medium
B6: anti-CR-1 antibody Clone 331 (antibody, V domains shown)
VH: QVQLQQSGPGQVKPSQSLSLICAISGDSVSTSSAAWNWIRQSPSRGFEWLGRTFYRSGWFTDYAASVKSRITINPDTSKNQFSLQLNSVTPEDTAMYYCARIRSGYRFDYWGQGILVAVSS
VL: NFMLTQPPSASGTPGQRVTVSCSGSSSNIGSNFVFWYQHLPGKAPKLLIYRNHQRPSGVPDRFSGSKSGTSASLAISGLRSEDESDYYCQVWDDRNVVFGGGTQLTVL
notes: VH of phage clone 331; human IgG heavy chain constant region CH1-CH2-CH3 from the vector pHIgH5zeo; VL of phage clone 331; human IgG light chain constant region CL from the vector pHIgL5hyg; whole human IgG built from the VH and VL of the scFv phage clone; also called anti-CR-1 Ab; source: ExpiCHO-S, transfected, conditioned medium
B7: anti-CR-1 antibody Clone 212 (antibody, V domains shown)
VH: QVQLQQSGPGLVKPSQTLSLTCGISGDSVSSNSAAWNWIRQSPSRGLEWLGRTYYRSQWYNDYAVSVNSRITINPDTSKNQFSLQLNSVTPEDTAMYYCARTLRTPLADDYYYSGMDAWGQGTTVTVSS
VL: QSVLIQPASVSGSPGQSITISCTGTSSDVGSYNLASWYQHHPGKAPKLMIYEVNNRPSGVSNRFSGSKSGNTASLTISGLQAEDEADYYCQVWDGSGDPHAVFGGGTQLTVL
notes: VH of phage clone 212; human IgG heavy chain constant region CH1-CH2-CH3 from the vector pHIgH5zeo; VL of phage clone 212; human IgG light chain constant region CL from the vector pHIgL5hyg; whole human IgG built from the VH and VL of the scFv phage clone; also called anti-CR-1 Ab; source: ExpiCHO-S, transfected, conditioned medium
B8: anti-CR-1 antibody Clone 35 (antibody, V domains shown)
VH: QVQLQQSGPGLVKPSQTLSLTCAISGNSVSSNSAAWNWIRRSPSRGLEWLGRTYYRSKWYNDYAVSVKSRITIKPDTSKNQFSLQLNSVTPEDTAMYYCARGFCSGGRCYSFDYWGPGTLVTVSS
VL: QSVLTQPASVSGSPGQSITISCTGTDSDVGAYGSASWYRHSPGKAPQLIIYDVTNRPSGVSNRFYGSKSGNTASLTISGLQAEDEADYYCQAWDSGIHVVFGGGTQLTVL
notes: VH of phage clone 35; human IgG heavy chain constant region CH1-CH2-CH3 from the vector pHIgH5zeo; VL of phage clone 35; human IgG light chain constant region CL from the vector pHIgL5hyg; whole human IgG built from the VH and VL of the scFv phage clone; also called anti-CR-1 Ab Clone 35; anti-CR-1 Ab; source: ExpiCHO-S, transfected, conditioned medium; also purified (HiTrap protein A)
B9: anti-CR-1 antibody Clone 226 (antibody, V domains shown)
VH: QVQLQQSGPGLVKPSQTLSLTCAISGDSVSSNSAAWNWIRQSPSRGLEWLGRTYYRSKWYNDYAVSVKSRITINPDTSKNQFSLQLNSVTPEDTAVYYCTPTPTWWPVRWGQGTLVTVSS
VL: QSALTQPRSVSGSPGQSVTISCTGTSGDVGYYDHVSWYQQHPGKAPKLFIYDVTKRPSGVPDRFSASKSGNTASLTISRLQAEDEAEYHCLTWGNSAVFGGGTQLTVL
notes: VH of phage clone 226; human IgG heavy chain constant region CH1-CH2-CH3 from the vector pHIgH5zeo; VL of phage clone 226; human IgG light chain constant region CL from the vector pHIgL5hyg; whole human IgG built from the VH and VL of the scFv phage clone; also called anti-CR-1 Ab; source: ExpiCHO-S, transfected, conditioned medium

What is called koff is a measure of how fast the partners let go of each other.

T1 sequence (P13385 31-150): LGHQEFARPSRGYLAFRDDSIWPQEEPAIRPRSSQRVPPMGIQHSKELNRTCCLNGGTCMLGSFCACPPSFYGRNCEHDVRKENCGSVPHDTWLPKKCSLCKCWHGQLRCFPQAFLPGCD

The first test concerns the target T1, recombinant soluble human CR-1 protein (rshCR-1) (Homo sapiens, UniProt P13385).
T1 construct: Cripto-1 (CR-1), human, recombinant soluble form; also called rhsCR-1; recombinant Cripto-1
As to the kind of experiment: BLI; Octet; rshCR-1 (2 ng/mL) fixed to amine reactive biosensor; purified antibody 25-200 nM; global fitting, steady state analysis section. Particulars: both partners purified. (Biolayer interferometry detects binding as a change in optical thickness at a sensor tip.)
For the molecule B1, the koff turned out to be 0.0114 s⁻¹.

A further test deals with T2, recombinant soluble human CR-1 protein (Homo sapiens, UniProt P13385).
T2 construct: Cripto-1 (CR-1), human, recombinant soluble form; also called rshCR-1; rhsCR-1
T2 sequence (P13385 31-150): as above
As to the kind of experiment: BLI; Octet RED96; rshCR-1 immobilised on Amine Reactive (AR2G) biosensor; anti-CR-1 Abs in ExpiCHO-S conditioned medium as analyte. Particulars: one partner purified.
As for B2, the off-rate (koff) came out at 0.0187 s⁻¹. On to B3, for which the koff stood at 0.0196 s⁻¹.

As for B4, the koff was 0.0207 s⁻¹. B5: the koff was found to be 0.0191 s⁻¹.

With B6, the koff was 0.0181 s⁻¹. Same read-out and setting: the value for B7 was 0.0209 s⁻¹; that for B8 was 0.0186 s⁻¹; that for B9 was 0.0194 s⁻¹.

Another test deals with Cripto-1 (CR-1) in CR-1 overexpressing human cancer cell lines and cancer tissues (Homo sapiens, UniProt P13385). In words: cell-based or functional assay.
Cripto-1 (CR-1) in CR-1 overexpressing human cancer cell lines and cancer tissues, sequence (P13385 31-150): as above
Conditions: not given
B1: the “growth inhibition of GEO cells overexpressing CR-1 (MTT, 72 h), antibody 2.1–136 µg/mL (14–900 nM); IC50” value is about 110 nM.
